How the values were obtained:
asialofetuin (ASF) [1] = molecular target: asialofetuin (ASF) (UniProt P12763); assay: saturation binding of GFP fluorescence to ASF adsorbed onto plastic, [GFP]=0-10 µM
asialofetuin (ASF) [2] = molecular target: asialofetuin (ASF) (UniProt P12763); assay: cell-based or functional assay

Chain of UniProt P12763 (P12763 19-359 limits assumed): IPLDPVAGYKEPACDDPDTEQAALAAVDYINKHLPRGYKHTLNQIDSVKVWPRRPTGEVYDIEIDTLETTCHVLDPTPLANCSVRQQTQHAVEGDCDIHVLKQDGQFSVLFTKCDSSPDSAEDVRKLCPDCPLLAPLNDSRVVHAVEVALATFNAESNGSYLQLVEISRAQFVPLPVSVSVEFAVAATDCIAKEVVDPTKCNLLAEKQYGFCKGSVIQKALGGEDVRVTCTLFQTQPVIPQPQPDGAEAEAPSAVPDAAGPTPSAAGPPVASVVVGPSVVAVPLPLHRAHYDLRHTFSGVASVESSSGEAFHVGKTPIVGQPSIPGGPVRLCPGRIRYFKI

Row | Substance | concentration approaching saturation (asialofetuin (ASF) [1]) [µM] | WT-G3 concentration at which insoluble aggregates with 7 uM ASF are detected at 420 nm (asialofetuin (ASF) [2]) [µM] | absorbance of 10 uM WT-G3 plus 7 uM ASF in PBS (asialofetuin (ASF) [2]) [absorbance]
1 | GFP-TT-G3 (superfolder green fluorescent protein - TriggerTrimer coiled-coil - human galectin-3; trimeric nanoassembly) | 2 | – | –
2 | wild-type galectin-3 (WT-G3) (from UniProt P17931 2-250) | – | > 2.5 | 0.4

— patent publication US20220106580A1
